Patent publication US20250163149A1, “ANTI-RAGE ANTIBODY” (Swansea University, priority 2022, published 2025)
Entries after “also recorded” stand apart in the source; their conditions may differ.

Columns and labels:
RAGE [1] = molecular target: T1, RAGE (Homo sapiens, UniProt Q15109); assay: Western blot on protein extracts from human healthy tissues; settings: brain, breast, kidney, liver, lung, ovary, pancreas, spleen and uterus
RAGE synthetic peptide = molecular target: T2, RAGE synthetic peptide (Homo sapiens, UniProt Q15109); assay: Surface plasmon resonance binding kinetics (Biacore T200), synthetic peptide analyte; settings: chimeric antibodies and AB11451
T2 construct: purchased Biorad; host or cells: chemical synthesis
Procedure: For on-rate and off-rate screening, Biacore™ T200 system (Cytiva, Uppsala, Sweden) was used to perform SPR analysis with 1×HBS-EP+ buffer (0.01M Hepes, 0.15M NaCl, 0.003M ethylenediaminetetraacetic acid, and 0.05% Surfactant P20, pH 7.4) (BR100669) used as sample and running buffer. The analysis temperature at the sensor chip surface and within the compartment was set to 25° C. Firstly, pH scouting with 10 mM sodium acetate buffer 4.0 (BR-1003-49), 10 mM sodium acetate buffer 4.5 (BR-1003-50), 10 mM sodium acetate buffer 5.0 (BR-1003-51) and 10 mM sodium acetate buffer 5.5 (BR-1003-52) was performed to identify the optimal pH required for ligand (α-RAGE antibodies) immobilization. This was followed by diluting the ligand with the appropriate Acetate buffer to at least 10 μg/mL. The ligand immobilization on the surface Series S Sensor Chip CM5 (29-1496-03, Cytiva) was performed using the Amine Coupling Kit (BR100050, Cytiva) containing 1-Etyhyl-3-(3-dimethylaminopropyl)-carbodiimide hydrochloride (EDC), N-Hydroxysuccinimide (NHS) and 1.0M ethanolamine-HcL PH 8.5 in accordance with the manufacturer's instructions. For each experimental run, the ligand was immobilized in flow cells 2 or 4 while flow cells 1 or 3 were left unmodified. Flow cells 2 and 4 were used as active flow cells while flow cells 1 and 3 were used as reference flow cells. […]

RAGE protein on SKOV3 = molecular target: T3, RAGE protein on SKOV3 (Homo sapiens, UniProt Q15109); assay: Immunofluorescent staining of RAGE basal expression on SKOV3 cells; assay type: cell-based; settings: primary antibody 4 μg/ml
T3 construct: RAGE protein expressed on the extracellular membrane of cancer cells in its native conformation; endogenous in cells; host or cells: SKOV3 (ECACC)
Procedure: To screen binding of α-RAGE antibodies by immunofluorescence, 1.5×10^4 SKOV3 cells/well (obtained from the European Collection of Authenticated Cell Cultures, ECACC, Public Health England, UK) were seeded in 8-well chamber slides (Ibidi) in 300 μl of stripped medium and cultured for 48 h in a humidified, 5% CO2 in air atmosphere incubator at 37° C. After culture, cells were fixed with 4% paraformaldehyde (Sigma) for 20 minutes, permeabilized with 0.1% Triton X-100 (Sigma) for 10 minutes at 4° C. and blocked with 3% BSA in PBS for 1 h. Primary antibodies diluted at 4 μg/ml in 3% BSA-PBS were incubated overnight at 4° C., followed by 1 h incubation with Alexa-488 secondary antibody. Cells were washed with PBS extensively between all steps, counterstained before imaging with Hoechst (Life Technologies™) and imaged using a LSM710 confocal fluorescence microscopy system (Zeiss, UK).

RAGE [2] = molecular target: T1, RAGE; assay: Binding target blocking assay by immunofluorescence on HEC-1A cells; assay type: cell-based; set-up: endogenous in cells; host or cells: HEC-1A (ECACC); settings: then antibody at 4 μg/ml
Procedure: To proof that HA9 shares similar binding epitope as other α-RAGE antibodies, an immunofluorescence approach was used. For this purpose, 1.5×10^4 HEC1A cells/well (obtained from the European Collection of Authenticated Cell Cultures, ECACC, Public Health England, UK) were seeded in 8-well chamber slides (Ibidi) in 300 μl of stripped medium and cultured for 24 h in a humidified, 5% CO2 in air atmosphere incubator at 37° C. After culture, cells were fixed with 4% paraformaldehyde (Sigma) for 20 minutes, permeabilized with 0.1% Triton X-100 (Sigma) for 10 minutes at 4° C. and blocked with 3% BSA in PBS for 1 h. Cells were then pre-incubated with a primary antibody against RAGE at a concentration in excess (20 μg/ml in 3% BSA in PBS for 1 h) to block the specific epitope they bind, before cells were incubated with the α-RAGE antibody of interest at 4 μg/ml in 3% BSA-PBS overnight at 4° C. This was followed by 1 h incubation with Alexa-fluorophore-conjugated secondary antibodies. Cells were washed with PBS extensively between all steps, counterstained before imaging with Hoechst (Life Technologies™) and imaged using a LSM710 confocal fluorescence microscopy system (Zeiss, UK). The mean intensity of fluorescence was obtained using imageJ by measuring the integrated density per imaged field, normalised by the number of cells in the respective field and obtaining the mean from >10 fields obtained per condition. A decrease in fluorescence in the pre-blocked condition compared with the not-pre-blocked condition means both antibodies share similar epitope of binding on the same protein.

RAGE [3] = assay: Western blot on protein extracts from ovarian cancer cell lines (OCCL); set-up: species or system human; settings: whole-cell extracts of SKOV3, OVCAR3, A2780 and cisplatin-resistant lines; antibody 1 μg/mL
Procedure: Confluent cultures of cells were lysed in ice cold RIPA buffer (Sigma-Aldrich), whole-cell protein extracts were quantified with DC protein assay, 30 μg/lane were resolved by SDS-PAGE on TGX precast gels, transferred to mini PDVF membranes, blocked 1 h at RT in 5% Bovine Serum Albumin (BSA) in TBST (Tris Buffered Saline, 0.1% Tween-20) and incubated o/n at 4° C. in the same solution with 1 μg/mL of mA9 (sc-365154, Santa Cruz Biotechnology) antibody, mHA9 antibody or hHA9 antibody, or GAPDH (Santa Cruz Biotechnology) as loading control. Membranes were then washed with TBST and incubated 1 h at RT with 0.1 μg/mL of IgG horseradish peroxidase secondary antibody (GE Healthcare) or […] of Goat F(ab′) 2 Anti-Mouse IgG-F(ab′) 2 horseradish peroxidase secondary antibody (Abcam). Target proteins were visualised after incubation with Clarity Western ECL Substrate and imaged using a ChemiDoc System Bio-Rad Imager. Bands were quantified with ImageLab software. Unless stated all the materials specified above were obtained from Bio-Rad Laboratories.

T1 sequence (Q15109 23-404): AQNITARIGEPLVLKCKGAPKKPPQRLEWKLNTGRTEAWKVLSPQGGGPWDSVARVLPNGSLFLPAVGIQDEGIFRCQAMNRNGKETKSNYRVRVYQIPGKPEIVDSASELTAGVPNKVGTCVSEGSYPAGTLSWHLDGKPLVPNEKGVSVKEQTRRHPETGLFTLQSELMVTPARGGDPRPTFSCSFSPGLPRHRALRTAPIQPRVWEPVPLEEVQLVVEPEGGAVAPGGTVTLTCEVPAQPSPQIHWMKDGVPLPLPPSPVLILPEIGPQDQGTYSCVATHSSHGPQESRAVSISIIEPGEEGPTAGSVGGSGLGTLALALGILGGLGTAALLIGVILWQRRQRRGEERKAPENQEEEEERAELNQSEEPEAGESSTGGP
T3 sequence (Q15109 23-404): as above
T1 sequence (Q15109 23-317 limits assumed): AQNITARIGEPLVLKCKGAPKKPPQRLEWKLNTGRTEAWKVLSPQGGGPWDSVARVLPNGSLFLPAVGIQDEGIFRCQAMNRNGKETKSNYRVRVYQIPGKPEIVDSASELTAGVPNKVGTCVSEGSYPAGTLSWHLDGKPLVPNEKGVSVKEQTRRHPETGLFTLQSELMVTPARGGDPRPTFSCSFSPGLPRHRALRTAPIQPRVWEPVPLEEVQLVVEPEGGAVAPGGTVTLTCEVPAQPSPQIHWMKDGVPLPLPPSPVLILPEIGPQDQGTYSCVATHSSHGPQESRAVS
T2 sequence (Q15109 39-65 limits assumed): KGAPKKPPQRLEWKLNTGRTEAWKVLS

B1: hHA9: chimeric humanised format of anti-RAGE antibody clone HA9 (antibody, V domains shown)
VH: EVKLVETGGGLVQPGRPMKLSCVASGFTLSDHWMNWVRQSPEKGLEWVAQIRNRPYKFEKYYSDSVKGRFTISRDDSKNSVYLQMNNLRAEDMGIYYCSSYRYGLAYWGQGTLVTVST
VL: DNLLTQSPAILSVSPGERVSFSCRASQTIDTRIHWYQQRKNGSPRLLIRYISESLSGIPSRFSGSGSGTEFTLTINSVESEDIADYYCQQTESWPITFGSGTKLEIK
RAGE [1]
  RAGE expression detected in human healthy tissues: absent or very low expression
RAGE synthetic peptide
  binding affinity to the new synthetic peptides: the affinity is weak
RAGE protein on SKOV3; compared with other clones and AB11451
  immunofluorescent signal (basal RAGE staining): highest detection of RAGE basal expression
RAGE protein on SKOV3; compared with other clones and AB11451, listed as chimeric HA9
  immunofluorescent signal (basal RAGE staining): most intense immunofluorescent signal
RAGE protein on SKOV3; compared with other clones and AB11451, listed as chimeric-HA9
  immunofluorescent signal (basal RAGE staining): higher intensity
RAGE [2]; Abcam antibody 20 μg/ml pre-incubation
  staining after Abcam antibody pre-blocking: did not result in a decrease
RAGE [2]; N16 20 μg/ml pre-incubation
  staining after N16 pre-blocking: statistically significant decrease
RAGE [3]
  RAGE isoform detected by western blot: able to detect expression levels of full-length transmembrane RAGE; also recorded: detection of high levels of full-length RAGE isoform
